US20200241008

T1: indicator molecule containing the cleavable sequence (GPQGIFGQ) with a terminal biotin group connected via a polyethylene glycol spacer/linker, intact
T1 chain: GPQGIFGQ

B1: MMP1 (Enzo) (protein)
chain: FVLTEGNPRWEQTHLTYRIENYTPDLPRADVDHAIEKAFQLWSNVTPLTFTKVSEGQADIMISFVRGDHRDNSPFDGPGGNLAHAFQPGPGIGGDAHFDEDERWTNNFREYNLHRVAAHELGHSLGLSHSTDIGALMYPSYTFSGDVQLAQDDIDGIQAIYGRSQNPVQP
B2: MMP7 (Enzo) (protein)
chain: YSLFPNSPKWTSKVVTYRIVSYTRDLPHITVDRLVSKALNMWGKEIPLHFRKVVWGTADIMIGFARGAHGDSYPFDGPGNTLAHAFAPGTGLGGDAHFDEDERWTDGSSLGINFLYAATHELGHSLGMGHSSDPNAVMYPTYGNGDPQNFKLSQDDIKGIQKLYGKRSNSRKK
B3: MMP11 (Enzo) (protein)
chain: FVLSGGRWEKTDLTYRILRFPWQLVQEQVRQTMAEALKVWSDVTPLTFTEVHEGRADIMIDFARYWHGDDLPFDGPGGILAHAFFPKTHREGDVHFDYDETWTIGDDQGTDLLQVAAHEFGHVLGLQHTTAAKALMSAFYTFRYPLSLSPDDCRGVQHLYGQPWPTVTSRTPALG
B4: MMP12 (Enzo) (protein)
chain: GPVWRKHYITYRINNYTPDMNREDVDYAIRKAFQVWSNVTPLKFSKINTGMADILVVFARGAHGDFHAFDGKGGILAHAFGPGSGIGGDAHFDEDEFWTTHSGGTNLFLTAVHEIGHSLGLGHSSDPKAVMFPTYKYVDINTFRLSADDIRGIQSLYG

Biological target: T1, indicator molecule containing the …

Q: B1 was tested. Which reader value at 0.5 µg/ml MMP (lateral flow) did it give?
A: 478 reader units

Q: With B2 as the protein, how does the reader value at 0.5 µg/ml MMP (lateral flow) read?
A: 373 reader units

Q: How did the reader value at 0.5 µg/ml MMP (lateral flow) turn out when B3 was run?
A: 280 reader units

Q: For B4, which reader value at 0.5 µg/ml MMP (lateral flow) is on record?
A: 1250 reader units
